# Measurements as given in article PMC3383883 (ACS Nano, 2012).
# Biological target: bovine serum albumin (Bos taurus, UniProt P02769)
# Assay: carbon nanotube field-effect transistor
# Sequence of bovine serum albumin (P02769 25-607): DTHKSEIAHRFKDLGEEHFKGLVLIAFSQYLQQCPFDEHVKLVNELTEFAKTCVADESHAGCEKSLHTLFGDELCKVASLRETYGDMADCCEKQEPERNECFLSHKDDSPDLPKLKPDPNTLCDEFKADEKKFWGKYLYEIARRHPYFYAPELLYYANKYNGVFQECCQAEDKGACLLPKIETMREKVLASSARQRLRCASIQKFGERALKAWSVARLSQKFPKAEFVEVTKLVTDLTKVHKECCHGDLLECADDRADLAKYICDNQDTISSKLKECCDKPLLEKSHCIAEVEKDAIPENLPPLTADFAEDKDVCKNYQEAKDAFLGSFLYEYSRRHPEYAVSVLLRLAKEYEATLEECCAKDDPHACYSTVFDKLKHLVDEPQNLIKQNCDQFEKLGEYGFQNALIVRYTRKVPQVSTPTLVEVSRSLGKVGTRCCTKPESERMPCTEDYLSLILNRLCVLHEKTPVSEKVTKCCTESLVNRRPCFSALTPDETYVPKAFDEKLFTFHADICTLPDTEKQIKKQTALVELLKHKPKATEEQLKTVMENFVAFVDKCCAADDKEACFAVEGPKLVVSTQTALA
binder,measurement,value
"anti-OPN 23C3 scFv (scFv, V domains shown) VH: EVQLVESGGGLVQPKGSLKISCAASGFTFNIYAMNWVRQAPGKGLEWVARIRSQSNNYTTYYADSVKDRFTISRDDSQSMLYLQMNNLKTEDTAMYYCVRQMGDYWGQGTTLTVSS VL: YIQMTQSPASLSVSVGETVTITCRASENIYSFLAWYQQKQGKSPQLLVYAATNLADGVPSRFSGSGSGTQFSLKINSLQSEDFGTYYCQHFWGTPFTFGSGTKLEIK",binding result,no binding (tested: 450 ng/mL)
